The numbers were not newly measured in publication PMC8592953, which cites them from elsewhere.

Read-outs that look alike come from different tables or passages of the source.

Data set [1] deals with RAGE (soluble) soluble (Homo sapiens) (UniProt Q15109).
Data set [2] has the same target. This is another data set of the same source.

Chain of UniProt Q15109 (Q15109 23-342): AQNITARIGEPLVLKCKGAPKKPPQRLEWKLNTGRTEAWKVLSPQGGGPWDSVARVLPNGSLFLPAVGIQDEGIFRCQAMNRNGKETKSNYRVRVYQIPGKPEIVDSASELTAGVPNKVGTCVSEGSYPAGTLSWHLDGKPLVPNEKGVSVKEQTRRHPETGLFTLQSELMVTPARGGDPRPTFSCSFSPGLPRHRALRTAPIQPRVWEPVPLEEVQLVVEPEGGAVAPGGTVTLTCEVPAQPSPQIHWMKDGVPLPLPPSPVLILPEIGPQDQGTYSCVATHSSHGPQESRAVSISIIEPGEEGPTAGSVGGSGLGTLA

On to “AGE-modified bovine serum albumin (BSA-AGE) (from UniProt P02769)”, for which the Kd (commonly the equilibrium constant for the complex coming apart) in data set [1] was 1 µM.

On to “glyoxylic acid-glycated bovine serum albumin (from UniProt P02769)”, for which, in data set [2], the Kd is 0.1 µM.
